“And” between values parts separate entries of the source, which are not always exact repeats. Equal entries are not always repeated.

In the experiment the target is recombinant ATcpnβ thermosome subunit from Acidianus tengchongensis strain S5 (Acidianus tengchongensis strain S5). Put plainly: cryo-EM structure.

Consider “recombinant ATcpnβ thermosome subunit from Acidianus tengchongensis strain S5 (natural protein)”, for which the subunits per ring (symmetry of top views) is 9 and 10.

The values above are taken from PMC3048791.
